Two substances from PMC3230630 can be followed below.

In test [1] the target is CLAcrB_(P223G/V225C/A777C) (E. coli) (UniProt P31224). Kind of test: cross-linking; inter-subunit disulfide trapping (C225–C777) in vivo: membrane vesicles from BW25113ΔacrB extracted in the presence of IAM, SDS-PAGE without DTT, Western blot with anti-AcrB.
Test [2] shares this target. Kind of test: native gel or EMSA; blue native (BN)-PAGE of freshly purified protein, 4–20% gradient gel, no DTT.
For test [3], the target named is wild type (WT) AcrB (E. coli) (UniProt P31224). The test is described as above.

On to “CLAcrB_(P223G/V225C/A777C) (from UniProt P31224 1-1049) (natural protein)”, for which the stoichiometry N in test [1] and in test [2] was 3 in each case.

As to “wild type (WT) AcrB (from UniProt P31224 1-1049) (natural protein)”, the stoichiometry N in test [3] worked out at 3.
